Measurements published in patent US11807873B2, “Conversion of S-lignin compounds to useful intermediates” (Alliance for Sustainable Energy, LLC, priority 2020, dated 2023).

Assays:
Assay in all cases: purified protein, by the assay type
Conditions in all cases: other: 2 μM Ht-VanB, 400 μM NADH, air-saturated HEPES (I = 0.1M), pH 7.5, 25° C, VanA 0.4 μM for vanillate, 1 μM for syringate and 3MGA
[1] = substrate: COc1cc(C(=O)O)cc(O)c1O
Method: (§1) In evaluating the parameters for VA, 0.4 μM VanA was used to ensure steady-state conditions at low concentrations of VA.
(§2) Steady-state kinetic analyses: Kinetic assays were performed by monitoring the consumption of O2 using a Clark-type polarographic O2 electrode OXYG1 (Hansatech) connected to a circulating water bath. Assays with the exception of GalA were performed in 1 mL of air-saturated 40 mM HEPES, 80 mM NaCl (I=0.1 M, pH 7.5) at 25° C. GalA assays were performed in 40 mM MOPS, 80 mM NaCl (I=0.1 M, pH 7.0) at 30° C. The electrode was calibrated daily according to the manufacturer's instructions using air-saturated buffer and water depleted of 02 via addition of sodium hydrosulfite. Stock solutions were prepared fresh daily. The background rate of O2-consumption was recorded prior to initiating the reaction and was subtracted from the measured reaction rate. Steady-state kinetic parameters were evaluated by fitting the Michaelis-Menten equation to the data using the least-squares fitting of LEONORA.
(§3) For VanAB, the standard reaction contained 1 μM VanA, 2 μM Ht-VanB, and 400 μM NADH. […] Stock solutions of the substrates were made in dimethylsulfoxide (DMSO). The final concentration of DMSO in the assay solutions was <1% (v/v). For PcaHG, the standard reaction contained 250 μM PCA. The reaction was initiated by adding 0.1 μM PcaHG. […] The reaction was initiated by adding 0.05 μM GalA.

[2] = substrate: COc1cc(C(=O)O)ccc1O
Method: as §1, §2, §3

[3] = substrate: COc1cc(C(=O)O)cc(OC)c1O

B1: VanAB (vanillate O-demethylase) (Pseudomonas putida KT2440) (protein)
chain: MYPKNTWYVACTPDEIATKPLGRQICGEKIVFYRARENQVAAVEDFCPHRGAPLSLGYVEDGNLVCGYHGLVMGCDGKTVSMPGQRVRGFPCNKTFAAVERYGFIWVWPGDQAQADPALIPHLEWAVSDEWAYGGGLFHIGCDYRLMIDNLMDLTHETYVHASSIGQKEIDEAPPVTTVTGDEVVTARHMENIMAPPFWRMALRGNGLADDVPVDRWQICRFTPPSHVLIEVGVAHAGKGGYHAEAQHKASSIVVDFITPESDTSIWYFWGMARNFAAHDQTLTDNIREGQGKIFSEDLEMLERQQQNLLAHPERNLLKLNIDAGGVQSRKVLERIIAQERAPQPQLIATSANPAGKLP
- Km [1]: 150 ± 20 µM
- kcat [1]: 0.53 ± 0.02 s⁻¹
- kcat/Km [1]: 0.36 ± 0.04 ×10^4 s^−1 · M^−1
- Km [2]: 4 ± 1 µM
- Km [3]: 16 ± 2 µM
- kcat [3]: 0.89 ± 0.03 s⁻¹
- kcat/Km [3]: 5.5 ± 0.6 ×10^4 s^−1 · M^−1
